Reference: the supplement of paper PMC12042874
± gives the uncertainty stated by the source.

Assay: amyloid nucleation score (Sup35N fusion, yeast selection) (log enrichment); library NNK2; higher = more nucleation; inactive = no reads after selection
Summary of the method: (§1)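 Plasmid inserts were Illumina-sequenced at input and output from psi-negative yeast expressing Sup35N fused to peptides of 20 random codons. The yeast were induced with 100 μM copper sulfate for 24 hours and grown 7 days at 30°C on medium lacking adenine and uracil, and sequences with under 100 input reads were excluded. Nucleation score is the DiMSum log enrichment of output over input reads, centred on the mode score of non-aggregating sequences.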

Substance | amyloid nucleation score
AAIMDTKVWLPETWHTF | 4.86 ± 0.049
AALPFHEVPTGLMITRAFWD | 3.72 ± 0.13
AAPVMH | -0.354 ± 0.76
AAWIAMCRILKQPTRCGHFL | 6.15 ± 0.073
ACAMFSKRSHSITSVVMGYG | 0.29 ± 0.48
ACDSAIIGWNKIT | 0.504 ± 0.54
ACETCPAAEIYLICGTWKSR | 9.36 ± 0.034
ACLLLRSMFSKQRLTFR | -0.38 ± 0.76
ACNFFPLI | 3.29 ± 0.065
ACNSRHHEFMSSKFYSATQL | -1.3 ± 0.78
ACQHSG | 4.36 ± 0.048
ACSQLSYWTFHSPWP | 4.07 ± 0.072
ACVCHREGCVAKGIIVM | 0.237 ± 1
ACVWNDIEGMNTFTVNSFFL | 3.39 ± 0.16
ADQSYLRNCIFWRQMILTRY | -0.193 ± 0.39
ADRSVGGFNCVSFLYAVN | 4.02 ± 0.076
AEGSDGCLKLNGAITIGHMI | inactive
AEGVSL | -0.554 ± 1
AFEDVDVQS | 0.94 ± 0.32
AFEFQYFIGGFRTRIMNCVF | inactive
AFEPDIK | -0.738 ± 0.62

Substance | amyloid nucleation score
AFIYYFNLTSAHYFPMRQMF | inactive
AFRDRWLKRMKLTYVVGCIN | -0.17 ± 0.45
AFVSSQVSTYYNFRTKDYSW | 3.68 ± 0.098
AGAHVVKAIHFSLYGNEGLT | 0.6 ± 0.74
AGCGIPALTYNNRRAKTHAQ | 0.901 ± 0.53
AGELGLNIYVLSIYK | 5.26 ± 0.067
AGEYDLIFYLDFYMGNEVIS | 2.29 ± 0.13
AGFMHVCYGSGQHRSKVDGC | 2.93 ± 0.082
AGILLYHPQNMHDSPLQMTR | 3.71 ± 0.099
AGNQIRIRASTCASMLGWDL | 3.83 ± 0.051
AGTFKRWPLGYECFVSERIG | -0.803 ± 0.49
AHCIFVLDGAKFRLWCLGSG | 1.11 ± 0.41
AHIREMNVSGGCWLVQWVSK | 9.497 ± 0.038
AHIVGMSSSWRLKRYISIES | 0.768 ± 0.43
AHRYGR | 1.57 ± 0.43
AIIGKFVGVCCD | -0.931 ± 1.1
AILLGLWCCTWFREALACLA | 1.04 ± 0.29
AIPVYFVLLMSITPLQLVVM | 1.38 ± 0.15
AIQQTQLLCIENMVGLFVVR | 0.58 ± 0.64
AIRGRLKLVDMRHVIPKLKR | 1.21 ± 0.33
AIVGEMMALFYDNLSRGGVH | -0.505 ± 0.47

Assay: amyloid nucleation score (Sup35N fusion, yeast selection) (log enrichment); library NNK3; higher = more nucleation; inactive = no reads after selection
Summary of the method: as §1

Substance | amyloid nucleation score
YVNTDVIVHENVFLLNSHNS | 1.69 ± 0.089
YVRIQRMRFYSCEHWVHHIG | inactive
YVSKVYLDH | inactive
YVVAGS | inactive
YVVHRLSRVFQLANLYYYAK | inactive
YVVREHYNGCATPN | inactive
YWDCGLCVNEMGRFICCLGG | inactive
YWIAIFTLHFLLDPRFRNSM | inactive
YWQWSNV | inactive
YWSAVHEDYHTASMMEPLWW | inactive
YWVLRFRSSCGYSRMRLGPR | inactive
YYAFPLYKKSFYRIPTNVWA | inactive
YYLCVVPLRLLGRCASWSFG | inactive
YYLNKVVSIVNRLFVAFAPC | inactive
YYLRKVKRKENTSMLHAAFS | inactive
YYLSLHR | inactive
YYNDSPAFHLRVR | inactive
YYNVAMRCRSHHTRMSIFWC | inactive
YYRSCWLSLCWCYHYCYGVD | 0.346 ± 0.61
YYSGCVLIRRILYLGRVGSP | inactive
YYSMTKNARCGHSFEAKSLF | inactive
YYSSWLFTGMVGSYTFTALC | inactive
YYVSRVSKMCWLRDVRWISI | inactive
YYWTKGGFKEITI | inactive
YYYGKWYLYEKHSVVFRGCR | inactive
